# Assay: Encapsulation of cationic peptide IB510 in liposomes (extrusion, BioGel column, LSC/HPLC)
# Type: physicochemical
# Details: ATTA8-DSPE versus PEG-PE
# Procedure: Lipid films (total of 100 mg of lipid) were prepared by dissolving appropriate quantities of individual lipids in 200 to 500 μL of chloroform, mixing the lipids, then removing the chloroform under high vacuum. Specifically, prepared lipid films were sphingomyelin/cholesterol/PEG-PE (50/45/5 molar ratios; prepared from 53.2 mg sphingomyelin, 26 mg cholesterol and 20 mg PEG-PE) and sphingomyelin/cholesterol/ATTA8-DSPE (50/45/5 molar ratios; prepared from 53.2 mg sphingomyelin, 26 mg cholesterol and 20 mg ATTA8-DSPE) and contained 1 μCi of 3H-cholesterylhexadecylether as a radiolabelled tracer. […] 5 μl were removed for phosphate assay to quantify the phospholipid and for liquid scintillation counting (LSC). […]
# Aliquots of 200-400 μL of the large unilamellar vesicles containing IB510 were passed over a 20 cm×1 cm BioGel A-15 m (50-100 mesh) column pre-equilibrated in 150 mM NaCl and 20 mM Hepes (pH 7.5). […] The concentrations of liposomes and peptide were quantified by LSC and HPLC, respectively. Encapsulation efficiency was calculated from the post-column peptide/lipid ratio divided by the precolumn peptide/lipid ratio. […]
row,Substance,encapsulation efficiency (comparison in words)
1,"N-(ω-azido-octa-(14′-amino-3′,6′,9′,12′-tetraoxatetradecanoyl))-1,2-distearoyl-sn-glycero-3-phosphoethanolamine [ATTA8-DSPE]",superior to PEG-PE
2,"Octa-(14-amino-3,6,9,12-tetraoxatetradecanoic acid) [ATTA8]",superior to PEG
